Measurements published in US20160324984A1 (published 2016).

T1: Ac-PYY(PEG3-Dig) (N-terminal acetyl; Lys 2 side chain carries PEG3-digoxigenin-3-carboxymethyl; Pqa at position 3; N-methyl-Arg at position 14; C-terminal amide)
T1 construct: also called DIG-PYY; Digoxigenin-PYY(3-36) conjugate
T1 peptide: IKXRHYLNWVTRQXY

B1: anti-helicar motif amino acid sequence antibody (0019) (antibody, V domains shown)
V domain 1: QAVVTQEPSLTVSPGGTVTLTCGSSTGAVTTSNYASWVQQKPGQAFTGLIGGTNNRAPWTPARFSGSLLGGKAALTLSGAQPEDEAEYYCALWYSNHWVFGGGTKLTVL
V domain 2: DAVVTQESALTTSPGETVTLTCRSSTGAVTTSNYASWVQEKPDHLFTGLIGGTNNRAPGVPARFSGSLIGDKAALTITGAQTEDEAIYFCALWYSNHWVFGGGTKLTVL
B2: murine anti-digoxigenin antibody (hybridoma-derived) (antibody, mouse IgG1, V domains shown)
VH: EVQLVESGGGLVKPGGSLKLSCAVSGFTFSDYAMSWIRQTPENRLEWVASINIGATYAYYPDSVKGRFTISRDNAKNTLFLQMSSLGSEDTAMYYCARPGSPYEYDKAYYSMAYWGPGTSVTVSS
VL: DVQMTQSTSSLSASLGDRVTISCRASQDIKNYLNWYQQKPGGTVKLLIYYSSTLLSGVPSRFSGRGSGTDFSLTITNLEREDIATYFCQQSITLPPTFGGGTKLEIK

How the values were obtained:
[1] = biological target: PYY_helicar (helicar motif engineered PYY); test: SEC-MALLS
PYY_helicar (helicar motif engineered PYY), sequence (peptide, as listed by the source, change not shown): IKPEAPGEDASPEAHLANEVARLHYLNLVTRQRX

[2] = biological target: PYY_helicar (helicar motif engineered PYY); test: column binding [Kd]; method not stated
[3] = biological target: T1, Ac-PYY(PEG3-Dig); test: size exclusion chromatography and SEC-MALLS; binding through digoxigenin

Binder	stoichiometry of the complex (peptides on one bivalent antibody) (peptides per antibody) [1]	Kd [2]	binding result [3]
B1	1.6	12 nM	–
B2	–	–	binds
